Where “and” joins values, the source holds several entries; their conditions need not be identical. Equal values may be shown once.
Experiments:
acidic tissues, tumors = test: In vivo fluorescence imaging of tissue and tumor targeting; design: species or system mice and rats
Excerpt: The pH-dependent interaction of pHLIP with membranes allows selectivity in the targeting of acidic (less than pH 7.0) diseased tissue. As noted above, acidity and hypoxia are considered as universal cancer biomarkers, and pHLIP is used as an acidity-targeting probe. Besides cancer, many other pathological states, such as inflammation, ischemia, stroke, arthritis and others are characterized by acidity in the extracellular space, which may broaden the potential applications of pHLIP. […] In addition to fluorescence imaging, PET (positron emission tomography) imaging of the acidic environment in human prostate tumors was performed using ^64Cu-DOTA conjugated to pHLIP. […] To manipulate the acidity of tissues, a buffer solution is administered to the subject systemically or local to the area in which a pH change is desired. In this manner, pHLIP-liposome-mediated delivery of a cargo compound is regulated, e.g., reduced or stopped. For example, administering bicarbonated water, which increases tissue pH, results in a reduction of tumor targeting by pHLIP.
The transmembrane (TM) part of exemplary pHLIP peptides contain two Asp residues. […] The replacement of the key Asp residues by Lys, Ala or Asn leads to the loss of peptide of pH-dependent membrane insertion, as measured in liposomes, red blood cells and confirmed by in vivo fluorescence imaging. […]

[1] = in vivo
Excerpt: If the peptide sequence were made more hydrophobic, tighter binding to red blood cells and epithelial cells and more aggregation in solution, and slower clearance and reduced bioavailability would occur. Making the peptide less hydrophobic accelerates clearance and prevents the peptide from finding its targets. Therefore, fine tuning of the solubility is an important property to optimize pHLIP performance in vivo.

[2] = system: liposomes and cellular membranes; type: cell-based
Excerpt: Toxicity is one of the most critical issues in the selection of any delivery agent. For example, the use of pore-forming membrane peptides as delivery agents is complicated by the toxicity associated with the formation of pores in cellular membranes in vivo.

[3] = pH-dependent membrane insertion of pHLIP peptides; type: physicochemical
Excerpt: Peptide folding and membrane insertion are driven by a drop of pH from neutral or high (>7.4) to slightly acidic (7.0-6.5 and less) pHs. […] In contrast, all pore forming peptides first form aggregates on the membrane surface and then “fall” into membrane and form pores.
The transmembrane (TM) part of exemplary pHLIP peptides contain two Asp residues. At neutral pH these charged residues enhance peptide solubility and serve as anchors keeping the peptide at the surface of membrane, thereby preventing pHLIP partitioning into the hydrophobic membrane bilayer. A reduction of pH induces protonation of Asp residues, and as a result, the overall hydrophobicity of the peptide increases, enhancing the affinity of the peptide for the lipid bilayer core and triggering peptide folding and insertion. The replacement of the key Asp residues by Lys, Ala or Asn leads to the loss of peptide of pH-dependent membrane insertion, as measured in liposomes, red blood cells and confirmed by in vivo fluorescence imaging. […] The Ala substitutions yield a peptide that aggregates in solution (but de-aggregates when it becomes diluted in bodily fluids or tissue upon administration to a subject), while the Lys and Asn substitutions give peptides that are too polar to insert either at neutral or low pH. […]

[4] = Oligomeric state and aggregation of pHLIP in solution and on membranes; type: physicochemical
Experimental: Poor solubility due to aggregation is a typical property of membrane peptides, which has complicated studies and applications. Isolated or purified pHLIP, as any membrane peptide, also has a tendency to aggregate, especially at high concentrations and/or low pH. However, in aqueous solution at neutral pH pHLIP exists as a monomer at concentrations less than 30 μg/mL (˜7.0 μM), as studied by fluorescence and CD spectroscopy measurements, size exclusion chromatography coupled with “on-line” laser light scattering, ultraviolet and refractive index detection (SEC-LS/UV/RI) and analytical ultracentrifugation experiments. When the solubility of the peptide is compromised as a result of mutations, the affinity of the peptide for a membrane and its overall conformational properties change. Thus, studies were undertaken to design pHLIP peptides that are optimized for clinical diagnostic and therapeutic use.
The oligomeric state of the peptide on the surface of a membrane (state II) and inserted into the lipid bilayer (state III) were evaluated by FRET performed with two different donor-acceptor probes attached to the N-terminus of the peptide.

Substance | targeting of acidic tissue and tumors (acidic tissues, tumors) | circulation in the blood [1] | cellular toxicity [2] | membrane leakage [2] | apparent pK of insertion [3] | oligomeric state in states I, II and III [4] | concentration at which pHLIP exists as a monomer ([4]; aqueous solution at neutral pH)
K-pHLIP (ACEQNPIYWARYAKWLFTTPLLLLKLALLVDADEGTG; pHLIP variant) | does not demonstrate tumor targeting | – | – | – | – | – | –
pHLIP: water-soluble polypeptide based on the bacteriorhodopsin C helix, e.g. SEQ ID NO: 4 (ACEQNPIYWARYADWLFTTPLLLLDLALLVDADET; pHLIP variant) | can target acidic tissues | several hours | no cellular toxicity | does not lead to membrane leakage | 6.0 | monomer | less than 30 μg/mL and ~7.0 μM

— patent publication US11857509B2, “Liposome compositions and methods of use thereof” (University of Rhode Island Board of Trustees, priority 2010, dated 2024)
